{"source": "patent US20240010695A1", "experiment_in_all_cases": "polyreactivity ELISA, antigen coated, 10 ug/mL binder", "key": {"[1]": {"biological_target": "human serum albumin (human) (UniProt P02768)"}, "insulin": {"biological_target": "insulin"}, "[2]": {"biological_target": "keyhole limpet hemocyanin"}}, "data": [{"substance": "Bococizumab (antibody)", "values": [{"measurement": "absorbance at 450 nm normalized against the no-antigen control", "setting": "[1]", "value": 16.6}, {"measurement": "absorbance at 450 nm normalized against the no-antigen control", "setting": "insulin", "value": 21.4}, {"measurement": "absorbance at 450 nm normalized against the no-antigen control", "setting": "[2]", "value": 38.8}]}]}
